Experimental data: paper doi:10.1101/2025.10.03.680009

Columns and labels:
GST-PreScission protease = experiment: SEC
[1] = target: GST-TbPEX6 (full-length) (Trypanosoma brucei); experiment: AlphaScreen or HTRF
[2] = target: tag-free TbPEX6 (Trypanosoma brucei); experiment: SEC

Row | Substance | stoichiometry N (GST-PreScission protease) | Kd [1] [nM] | stoichiometry N [2]
1 | GST-PreScission protease (enzyme) | 2 | – | –
2 | His6-TbPEX15ΔTM (1-320aa) (domain or fragment) | – | 10.3 | 1
3 | Tag-free TbPEX15ΔTM (1-320aa) (domain or fragment) | – | 15.3 to 30.4 | –
